Marks after values point to notes of the source that are not given here.
Assays:
[1] = target: T1, endoglin (Mus musculus, UniProt Q63961); assay: Severe RVPO induced by PAC for 7 days in wild-type mice pre-treated with N-Eng Ab
T1 sequence (Q63961 27-653): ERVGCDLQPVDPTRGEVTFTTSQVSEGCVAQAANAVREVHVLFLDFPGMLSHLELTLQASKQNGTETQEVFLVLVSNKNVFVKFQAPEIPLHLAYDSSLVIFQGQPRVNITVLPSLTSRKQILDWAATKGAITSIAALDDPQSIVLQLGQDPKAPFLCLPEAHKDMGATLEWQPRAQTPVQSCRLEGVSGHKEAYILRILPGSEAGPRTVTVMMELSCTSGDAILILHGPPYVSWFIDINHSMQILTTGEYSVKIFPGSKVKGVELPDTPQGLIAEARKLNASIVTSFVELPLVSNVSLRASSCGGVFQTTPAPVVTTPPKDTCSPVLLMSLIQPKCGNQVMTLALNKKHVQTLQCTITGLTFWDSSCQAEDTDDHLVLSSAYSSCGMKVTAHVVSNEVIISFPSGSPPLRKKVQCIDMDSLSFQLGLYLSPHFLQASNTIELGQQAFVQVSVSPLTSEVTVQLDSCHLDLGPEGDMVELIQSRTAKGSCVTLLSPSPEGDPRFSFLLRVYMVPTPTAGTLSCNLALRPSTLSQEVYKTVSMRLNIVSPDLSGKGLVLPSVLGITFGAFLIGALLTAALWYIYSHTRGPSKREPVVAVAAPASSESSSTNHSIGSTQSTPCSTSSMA
Procedure: (§2) Specifically, mice were intubated using a 24G angiocath and mechanically ventilated (Harvard Apparatus) at 95 breaths per minute with a tidal volume of 0.3 mL with 2.0-2.5% Isoflurane and 100% flow-through oxygen. Depth of anesthesia was monitored by assessing palpebral reflex, toe pinch, respirations, and general response to touch. Using sterile technique, a left thoracotomy was performed to isolate and encircle the main pulmonary artery using a 7-0 nylon suture that is then tied tightly around a pre-sterilized, blunt end needle. After de-airing, the thorax is closed with layered 6-0 Dexon sutures to eliminate the risk of pneumothorax. Post-operative analgesia is immediately provided with subcutaneous buprenorphine 0.1 mL, which is continued twice daily and as needed for an additional 72 hours. Severe RVPO was induced by PAC with a 25G needle for 7 days in WT and Eng+/− mice. To investigate the role of endoglin in RVPO, WT mice received 15 mg/kg of either a neutralizing antibody to endoglin (N-Eng Ab; TRC105; Tracon Pharma) or an IgG1 control antibody (IgG Ab; R&D Systems) via single intraperitoneal injection 1 day prior to and 3 days after induction of severe RVPO. To study the effect of blocking endoglin activity after induction of RVPO, WT mice were randomized to receive biweekly IP injections for three weeks of 15 mg/kg N-Eng Ab or IgG control Ab beginning three weeks after induction of moderate RVPO using a 23G needle for PAC. […] After 7 days of severe PAC or 3 to 6 weeks of moderate RVPO, mice underwent hemodynamic analysis with a RV conductance catheter (Millar Inc) as previously described in Kapur et al., PLoS ONE. […] Briefly, mice were anesthetized with 2.0% isoflurane administered via a non-invasive nose-cone. Body temperature was monitored by a rectal thermistor probe and maintained at 37.5° C. with heating pads and a cycling heat lamp. In the supine position, the right external jugular vein was surgically isolated. A conductance catheter was advanced into the right ventricle for pressure-volume loop acquisition as described in Kapur et al., PLoS ONE. […] After completion of the hemodynamic study, with the animal still under isoflurane anesthesia, the chest was rapidly opened, and the mouse was euthanized by arresting the heart in diastole with 0.3 mL of 1N KCL injected directly into the left ventricle. The heart was then removed and processed for either biochemical or histologic analyses.
(§3) All animals underwent terminal hemodynamic evaluation. Right heart catheterization was performed at the time of sacrifice in all animals. Mice were anesthetized with 2.0% isoflurane administered by a noninvasive nose cone. Body temperature was monitored by a rectal thermistor probe and maintained at 37.5° C. with heating pads and a cycling heat lamp. In the supine position, the right common carotid and right external jugular vein were surgically isolated. Silk ties were placed at the distal ends of both vessels while overhand loops were placed at the proximal ends with 7-0 nylon. A Millar PVR-1035 (Millar Instruments) mouse conductance catheter was used for RV recordings.

[2] = target: T2, endoglin (Homo sapiens, UniProt P17813); assay: TGFβ1 stimulation of left ventricular fibroblasts (LVFB) pretreated with N-Eng Ab; assay type: cell-based, mouse and human; settings: N-Eng Ab 10, 50, 100 μg/mL, TGFβ1 10 ng/mL
T2 construct: endogenous in cells; host or cells: primary right and left ventricular cardiac fibroblasts (mouse and/or human)
T2 sequence (P17813 26-658): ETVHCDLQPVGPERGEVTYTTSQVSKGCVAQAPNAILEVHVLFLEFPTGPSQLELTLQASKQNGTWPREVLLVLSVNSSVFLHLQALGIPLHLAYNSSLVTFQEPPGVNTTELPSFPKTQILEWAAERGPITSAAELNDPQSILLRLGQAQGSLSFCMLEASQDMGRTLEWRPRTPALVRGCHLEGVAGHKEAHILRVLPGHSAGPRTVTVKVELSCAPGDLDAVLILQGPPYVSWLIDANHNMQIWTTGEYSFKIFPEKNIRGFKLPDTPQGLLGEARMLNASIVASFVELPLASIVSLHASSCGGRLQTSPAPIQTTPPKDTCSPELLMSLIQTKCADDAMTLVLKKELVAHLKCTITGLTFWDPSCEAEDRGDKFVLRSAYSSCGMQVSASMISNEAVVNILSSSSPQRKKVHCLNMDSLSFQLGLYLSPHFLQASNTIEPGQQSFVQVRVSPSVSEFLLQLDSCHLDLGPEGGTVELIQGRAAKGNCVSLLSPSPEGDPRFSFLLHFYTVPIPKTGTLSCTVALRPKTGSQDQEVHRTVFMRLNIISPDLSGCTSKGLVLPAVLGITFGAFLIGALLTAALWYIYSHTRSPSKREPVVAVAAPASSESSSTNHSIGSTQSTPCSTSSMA
Procedure: (§1) 115:67-75, 2007 and Neuss et al., Cell Tissue Res. 286:145-153, 1996. For neutralizing antibody studies in vitro, mouse cardiac fibroblasts were pretreated with 10, 50, or 100 ug/mL of either a N-Eng Ab or control IgG Ab for 24 hours in fibroblast basal medium without supplementation prior to stimulation with TGFβ1 (10 ng/mL). After 24 hours, cells were harvested for analysis. […] 7:e5-920, 2012.

[3] = target: T1, endoglin; assay: Chronic moderate RVPO (PAC), antibody given from week 3 to week 6
Procedure: as §2, §3

[4] = system: endoglin; assay: TGFβ1 stimulation of right ventricular fibroblasts (RVFB) pretreated with N-Eng Ab; assay type: cell-based, mouse and human; settings: N-Eng Ab 10, 50, 100 μg/mL, TGFβ1 10 ng/mL
Procedure: as §1

[5] = Sham, wild-type mice + N-Eng Ab 15 mg/kg IP
[6] = after severe RVPO, compared to the IgG group
[7] = severe PAC 7 days, N-Eng Ab 15 mg/kg IP 1 day prior and 3 days after
[8] = 6 weeks moderate RVPO, antibody for the last 3 weeks
[9] = moderate PAC 6 weeks, N-Eng Ab 15 mg/kg IP biweekly for the last 3 weeks

“N-Eng Ab: neutralizing IgG1 antibody that binds human and mouse endoglin (TRC105), provided by Tracon Pharmaceuticals” was tested, and the Cardiac output [1, 5] was 4.0 ± 1 mL/min, the Heart rate [1, 5] was 512 ± 59 beats per min and the LV weight/tibial length [1, 5] was 6 ± 0.01. The “RV +dp/dt” value [1, 5] was 2171 ± 283 mm Hg/sec, the RV end-diastolic pressure [1, 5] was 3 ± 2 mm Hg and the RV stroke volume [1, 5] was 8 ± 2 µL. For the same substance, the RV systolic pressure [1, 5] was 24 ± 3 mm Hg, the RV weight/tibial length [1, 5] was 1.5 ± 0.01 g/mm and the “RV −dp/dt” value [1, 5] was 1963 ± 257 mm Hg/sec. The Total body weight [1, 5] was 28 ± 1 g, the Survival ([1]; after 7 days of severe RVPO, compared to IgG treatment) was “improved survival” and the “RV MYH7 mRNA levels” value ([1]; after severe RVPO) was “reduced”. The “RV TRPC-6 mRNA levels” value ([1]; after severe RVPO) was “reduced”, the “RV mass (degree of hypertrophy)” value ([1]; after severe RVPO) was “attenuated” and the “RV α-SMA mRNA levels” value ([1]; after severe RVPO) was “reduced”. The “RV Type I collagen levels” value [1, 6] was “reduced”, the RV calcineurin levels [1, 6] was “reduced” and the RV fibrosis [1, 6] was “significantly reduced”. For the same substance, the “RV pERK-1/2 levels” value [1, 6] was “reduced”, the “RV pSmad-3 levels” value [1, 6] was “reduced” and the Cardiac output [1, 7] was 2.4 ± 0.2 mL/min. The Heart rate [1, 7] was 514 ± 52 beats per min, the LV weight/tibial length [1, 7] was 5 ± 0.02 and the “RV +dp/dt” value [1, 7] was 4130 ± 563 mm Hg/sec. For the same substance, the RV end-diastolic pressure [1, 7] was 4 ± 2 mm Hg, the RV stroke volume [1, 7] was 5 ± 1 µL and the RV systolic pressure [1, 7] was 53 ± 9 mm Hg. The RV weight/tibial length [1, 7] was 1.9 ± 0.01*^,† g/mm, the “RV −dp/dt” value [1, 7] was 3287 ± 350 mm Hg/sec and the Total body weight [1, 7] was 24 ± 2 g. For the same substance, the “RV cardiomyocyte cross sectional area” value ([1]; severe RVPO, compared to IgG controls (p=0.09)) was “trend towards lower cardiomyocyte hypertrophy”, the “TGFβ1 induced calcineurin protein expression” value [2] was “not LVFB” and the “TGFβ1 induced protein levels of pERK-1/2” value [2] was “inhibited”. For the same substance, the “TGFβ1 induced protein levels of pSmad-3” value [2] was “inhibited”, the “TGFβ1 induced α-SMA protein expression” value [2] was “not LVFB” and the “TGFβ1 induced calcineurin protein expression” value ([2]; listed as TRC105) was “not LV fibroblasts”. For the same substance, the Calcineurin protein expression [3, 8] was “reduced”, the RV fibrosis [3, 8] was “significantly reduced” and the “Type I collagen protein expression” value [3, 8] was “reduced”. The RV fibrosis ([3]; 6 weeks moderate RVPO, antibody for the last 3 weeks, listed as TRC105) was “reduced RV fibrosis”, the Cardiac output [3, 9] was 1.4 ± 0.6 mL/min and the Heart rate [3, 9] was 550 ± 52 beats per min. For the same substance, the LV weight/tibial length [3, 9] was 4.5 ± 0.2 g/mm, the “RV +dp/dt” value [3, 9] was 4072 ± 875 mm Hg/sec and the RV end-diastolic pressure [3, 9] was 2 ± 1 mm Hg. It also gave an RV stroke volume [3, 9] of 3 ± 2 µL, an RV systolic pressure [3, 9] of 69 ± 14 mm Hg and an RV weight/tibial length [3, 9] of 2.5 ± 0.4 g/mm. The “RV −dp/dt” value [3, 9] was 3916 ± 875 mm Hg/sec, the Total body weight [3, 9] was 27 ± 2 g and the Mortality ([3]; moderate RVPO, any time point) was “No mortality was observed”. The “TGFβ1 induced calcineurin protein expression” value [4] was “inhibited”, the “TGFβ1 induced protein levels of pERK-1/2” value [4] was “inhibited” and the “TGFβ1 induced protein levels of pSmad-3” value [4] was “inhibited”. For the same substance, the “TGFβ1 induced α-SMA protein expression” value [4] was “inhibited” and the “TGFβ1 induced calcineurin protein expression” value ([4]; listed as TRC105) was “attenuated”.
